# Laboratory results: US20240327502A1 (Merck Sharp & Dohme, published 2024)
# B1: M2D2 (antibody, V domains shown)
# VH: QVQLVQSGAEVKKPGASVKVSCKASGYNFDNYYMSWVRQAPGQGLEWLGIIDPSGGRISYAPKFQGRVTLTRDTSTSTVYMELRGLRFEDTALYYCARLEATHEGPWGQGTLVTVSS
# VL: QSVLTQPPSASGTPGQRVTISCSGSNSNIGSSTVNWYQQLPGTAPKLLIYSDNHRPSGVPDRFSGSRSGTSASLVISGLHSEDEADYYCGTWDDGLNGPYVFGTGTKVTVL
# notes: IgG
# B2: M4C03 (antibody, V domains shown)
# VH: EVQLVESGGTLVQPGGSLRLSCAASGFRFNAFSMNWVRQAPGKGLEWVSYIDSRSNIIYYADSVKGRFTISRDNAKTSLYLRMSSLRDEDTAVYYCAKALCVVNYDFWSGLLGCAMDVWGQGTTVTVSS
# VL: QSVLTQPPSVSGAPGQRVTISCTGTTSNIGAGFDVHWYQQVPGTAPKLLIYANTDRPSGVPDRFSASKSGTSASLAITGLQVEDEAHYYCQTYDTTLSGSTVFGGGTKLTVL
# notes: IgG
# B3: M4C08 (antibody, V domains shown)
# VH: EVQLVESGGTLVQPGGSLRLSCAASGFKFNAFSMNWVRQAPGKGLEWVSYIDSRSNIIYYADSVKGRFTISRDNAKNSLYLRMSSLRDEDTAVYYCAKALCVVNYDFWSGLLGCAMDVWGQGTTVTVSS
# VL: QSVLTQPPSVSGAPGQRVTISCTGNTSNIGAGFDVHWYQQVPGTAPKLLIYANTDRPSGVPDRFSASKSGTSASLAITGLQAEDEADYYCQTYDRSLSGSTVFGGGTKLTVL
# notes: IgG
# B4: M2B01 (antibody, V domains shown)
# VH: QVQLVESGGGVVQPGKSLRLSCAASGFTFSSHAMDWVRQVPGKGLEWVAVISYDGSNRYYADSVKGRFTISRDTSKNTLYLQMNSLRPEDTAVYYCARDFQPSPMVYGVGYFDYWGQGTLVTVSP
# VL: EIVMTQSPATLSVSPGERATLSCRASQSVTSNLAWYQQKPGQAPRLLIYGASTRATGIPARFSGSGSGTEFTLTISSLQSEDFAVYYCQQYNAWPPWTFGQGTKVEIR
# notes: IgG
# B5: M2D01 (antibody, V domains shown)
# VH: QVQLQESGPGVVKPSETLSLTCTVSRGAITDYHLNWIRQPPGKGLEWIGYISSSGSTNYNPSLKSRVTISQVMSGTQFSLKLTSMSAADTALYYCASSSGRYWGGALDLWGQGTQVIVSS
# VL: DIVMTQSPDSLAVPLGERATINCKSSQSLLYTSNNKNSLAWYQQKPGQPPKLLLFWASTREFRVPDRFSGSGSGTDFTLTISSLQAEDVAVYYCQQYYTAPYTFGPGTKLEIK
# notes: IgG
# B6: M2B12 (antibody, V domains shown)
# VH: QVQLVESGGGVVQPGRSLRLSCEASGFTFSSSAMHWVRQAPGKGLEWVAIISYHGTNKDYSDSVRGRFTISRDNSKNTLYLQMNGLRGDDTAVYYCAKEAAVSGNFDSWGQGTMVTVSS
# VL: QLVLTQSPSASASLGASVKLTCTLISGPSNYAIAWHRQQPQKGPRYLMKVNSDGSHTKGDGIPDRFSGSSSGTERYLIISNLQSEDEADYYCQTWGSGIYVFGPGTKVTVL
# notes: IgG
# B7: M2A11 (antibody, V domains shown)
# VH: QVQLQESGPGLVKPSETLSLTCTVSGGSITSHYWSWVRQPPGKGLEWIAYIYYSGSTDYNPSLKSRVTISLDTSKNQVSLRLNSVTTADTAVYFCARCMPLYHVMHVWGHGTTVTVSS
# VL: QSVLTQPPSVSGAPGQRVTISCTGSSSDIGAGSDVHWYQQLPGTAPKLLIYGNTNRPSGVPDRFSGSKSGTSASLAITGLQAEDEADYYCQSYDSGLSGYVFGGGTKLTVL
# notes: IgG
# What was measured:
# [1] = molecular target: T1, Processed stabilized hMPV PreF trimer (115BV) (human metapneumovirus, strain B2); experiment: BLI, ratio to unprocessed PreF trimer
# T1 construct: also called Processed hMPV PreF trimer; processed PreF
# [2] = molecular target: T2, Unprocessed hMPV PreF trimer (human metapneumovirus, strain B2); experiment: BLI, mAb on anti-human Fc sensor
# T2 construct: also called Unprocessed hMPV WT PreF trimer; unprocessed hMPV PreF trimeric antigen
# [3] = molecular target: T1, Processed stabilized hMPV PreF trimer …; experiment: BLI, mAb on anti-human Fc sensor
# hMPV PostF trimer = molecular target: T3, hMPV PostF trimer (human metapneumovirus, strain B2); experiment: BLI, mAb on anti-human Fc sensor
# T3 construct: also called MPV PostF (dPFv1)
Binder,processed/unprocessed PreF trimer binding ratio [1],Octet binding response [2] [nm],Octet binding response [3] [nm],Octet binding response (hMPV PostF trimer) [nm]
B1,0.97,0.362,0.351,0.454
B2,0.12,0.263,0.0323,0.506
B3,0.12,0.222,0.0268,0.467
B4,0.19,0.315,0.0607,0.465
B5,0.19,0.33,0.0622,0.493
B6,1.16,0.378,0.438,0.445
B7,0.23,0.285,0.0658,0.293
